In patent publication US5789237, “Nucleic acid sequences coding for or complementary to nucleic acid sequences coding for interleukin 9 receptor” (Ludwig Institute for Cancer Research, dated 1998) one finds Kd data, which are given here for 2 molecules.

The target of this assay is T1, purified recombinant murine IL9, 125I labelled (murine, UniProt P15247, 125I label).
T1 sequence: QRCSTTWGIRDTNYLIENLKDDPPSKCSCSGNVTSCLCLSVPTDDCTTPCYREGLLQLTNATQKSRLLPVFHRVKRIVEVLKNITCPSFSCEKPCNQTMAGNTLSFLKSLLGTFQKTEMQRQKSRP
The experiment in a line: Scatchard analysis on transfected COS cells. How it is done:
In order to make sure that clone p9RA1 and all subsequent clones did in fact express IL9R. Scatchard analysis was carried out on transfected COS cells, following Goodwin et al., Cell 60: 941–951 (1990). […] This is slightly higher than the dissociation constant measured on TS1 cells previously, i.e., 67 pM.

B1: murine IL-9 receptor encoded by clone p9RC4 (receptor)
chain: VSVPEQGGGGQKAGAFTCLSNSIYRIDCHWSAPELGQESRAWLLFTSNQVTEIKHKCTFWDSMCTLVLPFEEVFLPFDNFTITLHRCIMGQEQVSLVDSQYLPRRHIKLDPPSDLQSNVSSGRCVLTWGINLALEPLITSLSYELAFKRQEEAWEARHKDRIVGVTWLILEAVELNPGSIYEARLRVQMTLESYEDKTEGEYYKSHWSEWSQPVSFPSPQRRQGLLVPRWQWSASILVVVPIFLLLTGFVHLLFKLSPRLKRIFYQNIPSPEAFFHPLYSVYHGDFQSWTGARRAGPQARQNGVSTSSAGSESSIWEAVATLTYSPACPVQFACLKWEATAPGFPGLPGSEHVLPAGCLELEGQPSAYLPQEDWAPLGSARPPPPDSDSGSSDYCMLDCCEECHLSAFPGHTESPELTLAQPVALPVSSRA
In general, Kd refers to the constant that tells how readily two partners part at equilibrium. As for B1, the equilibrium dissociation constant (Kd) is 126 pM.

B2: murine IL-9 receptor encoded by clone p9RA1 (receptor)
chain: VSVPEQGGGGQKAGAFTCLSNSIYRIDCHWSAPELGQESRAWLLFTSNQVTEIKHKCTFWDSMCTLVLPFEEVFLPFDNFTITLHRCIMGQEQVSLVDSQYLPRRHIKLDPPSDLQSNVSSGRCVLTWGINLALEPLITSLSYELAFKRQEEAWEQARHKDRIVGVTWLILEAVELNPGSIYEARLRVQMTLESYEDKTEGEYYKSHWSEWSQPVSFPSPQRRQGLLVPRWQWSASILVVVPIFLLLTGFVHLLFKLSPRLKRIFYQNIPSPEAFFHPLYSVYHGDFQSWTGARRAGPQARQNGVSTSSAGSESSIWEAVATLTYSPACPVQFACLKWEATA
In the case of B2, the Kd stood at 194 pM.
